Experiment: soluble on expression in E. coli; label from the status in PepcDB or PDB records

| Sequence | soluble on expression in E. coli |
| --- | --- |
| MARSDSDKNGNGGNLGFEAELFKAADKLRGNMEPSDYKHVALGLIFLKYISDAFEAKHKALLAEDALAAEDKDEYLADNVFWVPKEARWSHLQANAKQPTIGTLIDDAMRAIEKDNASLKGVLPKDYARPALNKVMLGELIDLISGIGHLLPSPSGRGAGGEGQSFDILGRVYEYFLGQFAGAEGKRGGEFYTPRSVVRVLVEMLEPYSGRVYDPCCGSGGMFVQSEKFVQEHGGRIGDIAIYGQESNYTAWRLAKMNLAVRGIDADIRWNNEGSFHKDELRDLKADYILANPPFNISDWGGDRLREDVRWQFGVPPVGNANYAWLQHIYWHLAPNGTAGVVLANGSMSSNQSGEGEIRRAMLEADAVDCMVALPGQLFYSTQIPACLWFLARNKNPANGKTGGLRDRRGHVLFIDARKMGVLVDRTRRELSDEEIQKIARTYHAWRGEPDAGDYADVAGFCKSATLDEIRKHGHVLTPGRYVGAAEVEDDGEPFEEKMARLAAQWRQQRDEAAKLDAAIEANLKELGFWE | soluble |
| MDGNAPEPRYWEKMRLVAEVLKAVEGPIYIATHVDPDGDAIGSSLGLYRALKALGKEAYWVADPPRFLRFLPKEEEYSDPVEKLPPGATLVALDSAEPSRVVGVPVEGFVINIDHHGTNPRFGHLHVVDPSKAATAQMVKDLIDLLGVEWTAEIATPVLTGILTDTGNFRFANTTPEVLRVAAELLGYGVKLAELTDRLQFRPPSYFRLMGQVLSTVAFHFGGLLVTAHLPEEAGAEEDSDDFVGLIRYVEGSVVSVFLRKREEGVKVSIRSRGGVSAQNIALKLGGGGHVPAAGATLKGLDLDQAYERVLEAVREELTRAGYLLEHHHHHH | not soluble |
| LVSSPSTLNPGTNVAKLAEQAPVHWVSVAQIENSLTGRPPMAVGFDIDDTVLFSSPGFWRGKKTYSPDSDDYLKNPAFWEKMNNGWDEFSIPKEAARQLIDMHVRRGDSIYFVTGRSQTKTETVSKTLADNFHIPAANMNPVIFAGDKPEQNTRVQWLQEKNMRIFYGDSDNDITAARDCGIRGIRILRAANSTYKPLPQAGAFGEEVIVNSEY | soluble |
| MEERMEMISERPKESMYSWNKTAEKSDFEAVEALMSMSCSWKSDFKKYVENRPVTPVSDLSEEENLLPGTPDFHTIPAFCLTPPYSPSDFEPSQVSNLMAPAPSTVHFKSLSDTAKPHIAAPFKEEEKSPVSAPKLPKAQATSVIRHTADAQLCNHQTCPMKAASILNYQNNSFRRRTHLNVEAARKNIPCAAVSPNRSKCERNTVADVDEKASAALYDFSVPSSETVICRSQPAPVSPQQKSVLVSPPAVSAGGVPPMPVICQMVPLPANNPVVTTVVPSTPPSQPPAVCPPVVFMGTQVPKGAVMFVVPQPVVQSSKPPVVSPNGTRLSPIAPAPGFSPSAAKVTPQIDSSRIRSHICSHPGCGKTYFKSSHLKAHTRTHTGEKPFSCSWKGCERRFARSDELSRHRRTHTGEKKFACPMCDRRFMRSDHLTKHARRHLSAKKLPNWQMEVSKLNDIALPPTPAPTQ | soluble |
| SQTVHFQGNPVTVANSIPQAGSKAQTFTLVAKDLSDVTLGQFAGKRKVLNIFPSIDTGVSAASVRKFNQLATEIDNTVVLCISADLPFAQSRFCGAEGLNNVITLSTFRNAEFLQAYGVAIADGPLKGLAARAVVVIDENDNVIFSQLVDEITTEPDYEAALAVLKA | soluble |
| GFRVFIFIILHFVLTNCIREDMSGCPRDDGGLALKFSYDTNADSRLSTAQGVDRLAVFIFDEKGLFISQVNDSMTSINDDYVMELPYKQGSYQFVAWGGYDKSTYQTSECVPRKTYIDDFFLSVKRQEDNQVTNQPKLLYHGMHDIVELNSKEKTIVLINLKQMTNHIRVIAHNLNQDRSDNIYIEDNNGKYGYDSQFSDDDRITYIPIYEASSEQSNPLIADFNVMRLEKDREPWLRIADKTGTIRYDENLIGKLIGGNPNIDFEHNHDFTIEISFDNYIPVIIKINGWEIVNEEI | not soluble |
| GMAEKQYDFTHVPKRQGNSIKWGVLKEKELPMWIAEMDFKIAPEIMASMEEKLKVAAFGYESVPAEYYKAVADWEEIEHRARPKEDWCVFASGVVPAISAMVRQFTSPGDQILVQEPVYNMFYSVIEGNGRRVISSDLIYENSKYSVNWADLEEKLATPSVRMMVFCNPHNPIGYAWSEEEVKRIAELCAKHQVLLISDEIHGDLVLTDEDITPAFTVDWDAKNWVVSLISPSKTFNLAALHAACAIIPNPDLRARAEESFFLAGIGEPNLLAIPAAIAAYEEGHDWLRELKQVLRDNFAYAREFLAKEVPEVKVLDSNASYLAWVDISALGMNAEDFCKYLREKTGLIISAGNGYRGNGHEFVRINLACPKELVIDGMQRLKQGVLNLNN | soluble |
| GAMGKVTHSIHIEKSDTAADTYGFSLSSVEEDGIRRLYVNSVKETGLASKKGLKAGDEILEINNRAADALNSSMLKDFLSQPSLGLLVRTYPEL | soluble |
| EISGFGQCLVWVQCSFPNCGKWRRLCGNIDPSVLPDNWSCDQNTDVQYNRCDIPEETWTGLE | soluble |
| NTLGMALYADGGLMASKPYAASGKYIHRMSNFCQSCYYNPNDLLGEKACPFNALYWNFLHQNQEKLKDNPRLRYAYMNWQKMDFDKQKKTIHKAQRILADLDSANL | not soluble |
| MWIPSKLTRPGRLHNAIVRPRVLDLLQQAPYYKLVLFRSPAGYGKTTMAAQWLSDKPNVGWYSIDDSDNDGFRFVNYLLQALNKATNFSCSNAQKLAEKRQISSLRSLFSEVFAEMADFHQECYVVLDDYHLITNDEIHESMRFFLKHMPDNLTVVVTSRAAPPLGTANLRVRDLMIEIGNEMLAFDTEETTRFFNQRIADGIDEDMANSLRTYVEGWPSAMQLIALQAQHQNRTLAQTVESVSQFNHAHLWDYLVEEVFDLLDHETRHFLMQVSVLDHFNDELVFALTQREDALGLIESLNRYGLFIYPLEGEHNWFRFHNLFGEFLSHERQARIPQQEKDLHRNAAVAWLQQKSPHQAIHHAQKSNDKDLVVEILNEFGWKMFNQGELSTLEHAINKLDAELLFSHPKLTMLRAWLAQSQHRYNQVGQLLEEAEEEHKKRNIELDIHYQGQA | not soluble |
| MGSDKIHHHHHHMGAVVVKDLRKRIGKKEILKGISFEIEEGEIFGLIGPNGAGKTTTLRIISTLIKPSSGIVTVFGKNVVEEPHEVRKLISYLPEEAGAYRNMQGIEYLRFVAGFYASSSSEIEEMVERATEIAGLGEKIKDRVSTYSKGMVRKLLIARALMVNPRLAILDEPTSGLDVLNAREVRKILKQASQEGLTILVSSHNMLEVEFLCDRIALIHNGTIVETGTVEELKERYKAQNIEEVFEEVVKCSENF | soluble |
| MEHHHHHHATNLRGVMAALLTPFDQQQALDKASLRRLVQFNIQQGIDGLYVGGSTGEAFVQSLSEREQVLEIVAEEAKGKIKLIAHVGCVSTAESQQLAASAKRYGFDAVSAVTPFYYPFSFEEHCDHYRAIIDSADGLPMVVYNIPALSGVKLTLDQINTLVTLPGVGALKQTSGDLYQMEQIRREHPDLVLYNGYDNIFASGLLAGADGGIGSTYNIMGWRYQGIVKALKEGDIQTAQKLQTECNKVIDLLIKTGVFRGLKTVLHYMDVVSVPLCRKPFGPVDEKYLPELKALAQQLMQER | soluble |
| MAFDISAQDPFSILIAGVDSREDTHAGRSDTLIVLTVNPKEESIKMLSIPRDTRTEIVGRGTDDKINHAYAFGGAQMTIDTVENFLDIPIDHYVSINMDGFTQLVDALGGVSVENSFAFSQNGYQFEEGEIFLETGDEALAYARMRKQDSRGDFGRNDRQRQIVEAVIKQSAQFSSITKAGAILDAVGESVRTDLQLDGMWELQSNYRGAAKNIEQLEITGEGTRINNIYYLIIPQEEIARVQGELKSHLELSLEHHHHHH | soluble |
| MSLRPFATKAEADAAVADIRARGRLIVGLDIGSNLFSFRDPITGEITGFDVDIAGEVARDIFGVPSHVEYRILSAAERVTALQKSQVDIVVKTMSITCERRKLVNFSTVYLDANQRILAPRDSPITKVSDLSGKRVCVARGTTSLRRIREIAPPPVIVSVVNWADCLVALQQREIDAVSTDDTILAGLVEEDPYLHIVGPDMADQPYGVGINLDNTGLVRFVNGTLERIRNDGTWNTLYRKWLTVLGEGHHHHHH | soluble |

— the DeepSol protein solubility set
